From the RNAGym collection of RNA variant scans (doi:10.7554/elife.80360) come the findings set out here.

First the molecules themselves.
B1: Hammerhead Ribozyme (parent)
chain: ACCGGAUGUGCUUUCCGGUCUGAUGAGUCCGUGAGGACGAAACAG

The variants in this data set derive from B1. Put plainly: self-cleavage, relative activity (ratio to wild type); higher = more cleavage; co-transcriptional.
For ACCUGAUGUGCUUUCCGGUCUGAUGAGUCCGUGAAGACGAAACAG, the self-cleavage is 0.337.

Regarding ACCGGAUGUGCUUUCUGGUCUGAUGACUCCGUGAGGACGAAACAG, the self-cleavage came out at 0.783. In the case of ACCGGAUGUGCUUUCCGGUCUGAUGAGUCCGUGAGAACGACACAG it was 0.382; in that of ACCGGAUGUGCGUUCCGGUCUGAUGAGUCCGUGAGGACGAAAUAG, 0.43. In the case of ACCGGAUGUGCUUUCCGGACUGAUGAGUCCGUGAGGACGAAAUAG it was 0.396; in that of ACCGGAUGUGCUUUCCGGUCUGAUGAGUGCGUGGGGACGAAACAG, 0.446; in that of ACCGGAUGUGCUUUCCGGUCUGAUGAGUGCGUCAGGACGAAACAG, 0.654. Then ACCGGAUGUGCUUUCCGGUCUGAUGAGUCCGUGUGGACGGAACAG, with 0.304; and ACCGGAUGUGCUUUCCGGUCUGAUGACUCCGUGAGGACGAAACAU, with 0.564; and ACCGGAUGUGCUUACCGGUCUGAUGAGUCCGUGAGGACUAAACAG, with 0.315. Turning to ACCGGAUGUGCUUUCUGGUCUGAUGAGCCCGUGAGGACGAAACAG, the self-cleavage came to 0.874. ACCGGAUGUGCUUUCCGGUCUGAGUAGUCCGUGAGGACGAAACAG: the self-cleavage was determined as 0.338. Then ACCGGAUGUGCUUUCCGGUCUGAUGAGUCCGCGAGGACGUAACAG, with 0.306.

Take ACCGGAUGUGCUUUCCGGUCUGAUGAGACCGUGAGGACGAAACGG: the self-cleavage was 0.596.

For ACCGGAUGUGCUUUCCGGUCUGAUGAGUCCGGGAGGACGAAACAC, the self-cleavage was determined as 0.712. As for ACCGGAUGUACUUUCCGGUCUGAUGAGUCCGUGAGGACUAAACAG, the self-cleavage is 0.401. In the case of ACCGGAUGUGCUUUCCGGUCUGUUGAGUCCUUGAGGACGAAACAG it was 0.477; in that of AACGGAUGUGGUUUCCGGUCUGAUGAGUCCGUGAGGACGAAACAG, 0.828; in that of ACCGGAUGUGCUUUCCGGUACGAUGAGUCCGUGAGGACGAAACAG, 0.394.

Regarding ACCGGAUGUGCUUUCCGGUCUGAGGAGCCCGUGAGGACGAAACAG, the self-cleavage turned out to be 0.971. Regarding ACCGGAUGUGCUUUCAGGUCUGAUGAGUCCGUGAGGACGAAAAAG, the self-cleavage worked out at 0.304. Then ACCGGAUGUGCUUUCCGGUCUGAUGAGUCCGUGAGGACGAAACAU, with 0.898; and AACGGAUGUGCUUUCCGGUCUCAUGAGUCCGUGAGGACGAAACAG, with 0.353. Then ACCGGAUGUGCUUUCCGCUCAGAUGAGUCCGUGAGGACGAAACAG, with 0.333. On to ACCGGAUGUGCUGUCCGGUCUGAUGAGUCCGUGAUGACGAAACAG, for which the self-cleavage was 0.873. Then ACCGGAUGUGCGUUCCGGUCUGAUGAGUCCGUGAGGACGACACAG, with 0.276; and ACCGGAUGUGCUUUCCGGUCUGAUGACUUCGUGAGGACGAAACAG, with 0.576. Then ACCGGAUGUGCUUUCCUGUCUGAUGAGUCCGUGAGGCCGAAACAG, with 0.688; and ACCGGAUGUGCUUUCCGAUCUGAUGAGUCCGUGCGGACGAAACAG, with 0.537. For GCCGGAUGUGCUUUCCGGUCUGAUGAGUCCGUGAGGACGAAACAG, the self-cleavage turned out to be 1.79. In the case of AUCGGAUGUGCUUUCCGGUCUGAUGAGUCAGUGAGGACGAAACAG it was 0.893; in that of ACCCGUUGUGCUUUCCGGUCUGAUGAGUCCGUGAGGACGAAACAG, 0.281; in that of ACCGGAUGUGCAUUCCGGUCUGAUGAGUCCGUUAGGACGAAACAG, 1.03. Then ACCGCAUGUGCUUUCCGGUCUGAUGAGACCGUGAGGACGAAACAG, with 0.376.

In the case of ACCGGAUGUGCUUUCCGGUCUGAUGAGUCCCCGAGGACGAAACAG, the self-cleavage stood at 0.773. ACUGGAUGUGCUUUCCGGUCUGAUGAGUCCGUGAGGACGAAACAC: the self-cleavage was found to be 0.579. Then ACCGGAUGUGCUGUCCGGUCUGAUGAGUCCGUGCGGACGAAACAG, with 0.79; and ACCGGAUGUGCUUUCCGGUCUCAUGAGUCCGUGAGGACGAAGCAG, with 0.265; and ACCGGAUGUGCUAUCCGGUCUGGUGAGUCCGUGAGGACGAAACAG, with 0.441. Consider ACCGGAUGUGCUUUCCGGUCUGAAGGGUCCGUGAGGACGAAACAG, for which the self-cleavage was found to be 0.332. Consider ACCGGAUGUGCUUUCCGGUCUGAUGAGUCCGUGAGGACGAAAGGG, for which the self-cleavage is 0.934.

With ACUGGAUGUGCUUUCCGGUCUGAUGAGUCCGUGAGGACUAAACAG, the self-cleavage stood at 0.343. In the case of AGCGGAUGUGCUUUCCGGUCUGAUGAGUCCGUGAGGACGAAGCAG it was 0.273; in that of ACCGGAUGUGCUUUCCGGUCUGAUGAGCGCGUGAGGACGAAACAG, 0.583. Then ACCGGAUGUGCUUUCAGGUCUGAUGAGUCCGUGAGGACGGAACAG, with 0.297.

In the case of ACCGGAUGUGCGUUCCGGUCUGAUGAGUCCGUGAGGACGUAACAG, the self-cleavage turned out to be 0.376. Consider ACCGGAUGUGCUUUCCGGUCUGAUGAGUGCGUGAGGACGAAACCG, for which the self-cleavage is 0.35. Consider ACCGGAUGUGCUUUCCGGUCUGAUGAGUCCGUGAGAACCAAACAG, for which the self-cleavage was found to be 0.306. Regarding ACCGGAUGUGACUUCCGGUCUGAUGAGUCCGUGAGGACGAAACAG, the self-cleavage worked out at 1.08.

For the variant ACCGGAUGUGUUGUCCGGUCUGAUGAGUCCGUGAGGACGAAACAG, the self-cleavage turned out to be 1.25. Then ACCGGAUGUGCUUUCCGGUCUGACGAGUCCGUGAGGACGAAACGG, with 1.18; and ACCGGAUGUGCUUUUUGGUCUGAUGAGUCCGUGAGGACGAAACAG, with 0.776. In the case of ACCGGAUGGGCUUUCCGGUUUGAUGAGUCCGUGAGGACGAAACAG it was 0.468; in that of ACCGGAUGUGCUUUCCGGUCUGAUGAGUCCCUCAGGACGAAACAG, 0.969. Take ACCUGAUGUGCUUUCCGGUCUGAUGAGUCCCUGAGGACGAAACAG: the self-cleavage worked out at 0.56. For ACCGGAUGUGCUUUCCGGUCUGAUGAGUCCGAGAGGACGAAACAG, the self-cleavage turned out to be 0.949.

ACCGGAUUUGCUUUCCGGUCUGAUUAGUCCGUGAGGACGAAACAG: the self-cleavage worked out at 0.391.
